Source: patent US20030171557

Experiments:
[1] = biological target: GST protein [GST: P08515]
[2] = biological target: GST-IkBα protein [GST: P08515]
IkBα C-terminal peptide = biological target: T1, IkBα C-terminal peptide
T1 chain: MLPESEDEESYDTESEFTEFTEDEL

Chain of GST protein [GST: P08515] (P08515 whole entry): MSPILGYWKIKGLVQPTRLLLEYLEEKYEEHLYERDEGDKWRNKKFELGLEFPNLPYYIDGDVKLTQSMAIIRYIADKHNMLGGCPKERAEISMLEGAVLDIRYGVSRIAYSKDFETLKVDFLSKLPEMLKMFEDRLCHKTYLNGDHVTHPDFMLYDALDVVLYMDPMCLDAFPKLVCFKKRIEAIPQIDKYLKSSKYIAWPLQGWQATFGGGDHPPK

B1: GST fusion protein with wild VRK1 protein (protein)
chain: MPRVKAAQAGRQSSAKRHLAEQFAVGEIITDMAKKEWKVGLPIGQGGFGCIYLADMNSSESVGSDAPCVVKVEPSDNGPLFTELKFYQRAAKPEQIQKWIRTRKLKYLGVPKYWGSGLHDKNGKSYRFMIMDRFGSDLQKIYEANAKRFSRKTVLQLSLRILDILEYIHEHEYVHGDIKASNLLLNYKNPDQVYLVDYGLAYRYCPEGVHKEYKEDPKRCHDGTIEFTSIDAHNGVAPSRRGDLEILGYCMIQWLTGHLPWEDNLKDPKYVRDSKIRYRENIASLMDKCFPEKNKPGEIAKYMETVKLLDYTEKPLYENLRDILLQGLKAIGSKDDGKLDLSVVENGGLKAKTITKKRKKEIEESKEPGVEDTEWSNTQTEEAIQTRSRTRKRVQK
kinase assay, phosphorylation of substrate ([γ-32P]-ATP, SDS-PAGE, 10 mM Mg) [1]: GST protein was not phosphorylated by VRK1 | kinase assay, phosphorylation of substrate ([γ-32P]-ATP, SDS-PAGE, 10 mM Mg) [2]: wild VRK1 protein phosphorylates casein and GST-IkBα | kinase assay, phosphorylation of substrate ([γ-32P]-ATP, SDS-PAGE) (IkBα C-terminal peptide): Arrows indicate ... phosphorylated IkBα C-terminal peptide (“P”) | kinase assay with casein as substrate in the presence of Mg, Mn, Zn or Ca at 2 mM or 10 mM (casein (Sigma)): VRK1 exhibits phosphorylation activity in the presence of all divalent cations except for Zn ... especially strong activity in the presence of Mn | kinase assay, phosphorylation of substrate ([γ-32P]-ATP, SDS-PAGE, 10 mM Mg) (casein (Sigma)): wild VRK1 protein phosphorylates casein and GST-IkBα
